Residue numbers refer to the chain shown, from its start. In names and notes the source's numbering stands.
T1: IL-4 (UniProt P05112 25-153)
T1 sequence (looked up): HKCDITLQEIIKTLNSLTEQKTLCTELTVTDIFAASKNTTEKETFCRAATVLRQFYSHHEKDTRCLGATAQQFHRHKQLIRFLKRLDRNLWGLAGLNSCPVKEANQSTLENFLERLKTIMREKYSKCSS

T2: IL-7 (UniProt P13232 26-177)
T2 sequence (looked up): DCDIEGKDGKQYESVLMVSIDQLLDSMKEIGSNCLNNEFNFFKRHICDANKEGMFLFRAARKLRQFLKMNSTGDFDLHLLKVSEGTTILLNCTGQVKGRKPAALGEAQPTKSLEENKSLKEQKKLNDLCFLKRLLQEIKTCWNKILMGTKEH

B1: murine monoclonal antibody 19E3 (antibody, V domains shown)
VH: QVQLQQPGSELVMPGASVKMSCKASGYIFTDYWMHWVKQRPGQGLEWIGTIDPSDNYTIYSQNFKGKATLTVDESSSTAYMLLSSLTSEDSAVYFCARYGFAMDYWGQGTSVTVSS
VL: DIQLTQTTSSLSASLGDRVTISCRASQDISNFLNWYQQTPDGTVKLLIYYTSRLHSGVPSRFSGSGSGTDYSLTISNLEQEDIATYFCQQGHTLPRTFGGGTKLEIK
notes: also called 19E3.1
B2: K44VHa6-N56Q (antibody, IgG1, V domains shown)
VH: QVQLVQSGAEVKKPGASVKVSCKASGYTFTDYWMHWVRQAPGQGLEWMGTIDPSDQYTIYSQNFKGRVTMTVDESTSTVYMELSSLRSEDTAVYYCARYGFAMDYWGQGTLVTVSS
VL: DIQLTQSPSSLSASVGDRVTITCRASQDISNFLNWYQQKPGKAVKLLIYYTSRLHSGVPSRFSGSGSGTDYTLTISSLQPEDFATYYCQQGHTLPRTFGGGTKVEIKR
B3: K2Ha-N56Q (antibody, human IgG1, kappa, V domains shown)
VH: B2 VH with V72R, E74T
VL: B2 VL with Y87F
B4: murine monoclonal antibody 8B6 (antibody, V domains shown)
VH: EVQLVESGGGSVKPGGSLKLSCAASGLTFSHYYMYWVRQTPEKRLEWVAIISDGGDYTHYSDSVKGRFTISRDNAKNNLYLQMSSLQSEDTAMYYCAGDYGYGYEGWFAYWGQGTLVTVST
VL: DIVMTQSQKFMSTSVGDRVSVTCKASQNVDTYVAWYQQKPGQSPKALIYSTSYRYSGVPDRFTGSGSGTDFTLTISNVQSEDLAEYFCQQYNSYPWTFGGGTKLEIK
notes: also called 8B6.1
B5: murine monoclonal antibody 9H10 (antibody, V domains shown)
VH: EVQLQQFGAEVVKPGASVKMSCKASGYTFTDYNMNWVKQSHEKSLEWIGDIHPKFHSTNYNQKFKGKATLTIDTSSSTAYMELRNLTSEDTAVYYCARVGNYVYFVMDYWGQGTSVTVSS
VL: SIVMTQTPKFLLVSAGDRVTITCKASQSVSNDVAWYQQKPGQSPKLLIYYASNRYTGVPDRFSGSGYGTDFTFTISTVQAEDLAVYFCQQDYTSPWTFGGGTKLEIK
notes: also called 9H10.1
B6: 9F11-4 (antibody, IgG1, V domains shown)
VH: EVQLVESGGGLVQPGGSLRLSCAASGFTFSDAWMDWVRQAPGKGLEWVAEIRSEADNHPTYYAESVKGRFTISRDDSKNSLYLQMNSLKTEDTAVYYCTEYDYEGFVHWGQGTLVTVSS
VL: DIVMTQTPLSLSVTPGQPASISCRASKSVSTYGYSYMHWYLQKPGQPPQLLIYLASNLESGVPDRFSGSGSGTDFTLKISRVEAEDVGVYYCQHSRELPLTFGQGTKLEIK
B7: 9F11-11 (antibody, IgG1, V domains shown)
VH: B6 VH
VL: B6 VL with M4L
B8: 9F11-6 (antibody, IgG1, V domains shown)
VH: B6 VH with L81V
VL: B6 VL
B9: recombinant cynomolgus monkey IL-21 (ligand)
chain: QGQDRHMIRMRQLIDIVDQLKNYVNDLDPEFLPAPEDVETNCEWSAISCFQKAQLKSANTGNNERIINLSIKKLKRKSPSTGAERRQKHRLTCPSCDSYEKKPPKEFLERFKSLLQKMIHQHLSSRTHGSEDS
notes: also called cyno IL-21; cynoIL-21

Each binder was assayed against T3, recombinant human IL-21 (human, UniProt Q9HBE4 30-162, limits assumed) (assay: cell-based or functional assay).
T3 sequence (Q9HBE4 30-162 limits assumed, form in doubt): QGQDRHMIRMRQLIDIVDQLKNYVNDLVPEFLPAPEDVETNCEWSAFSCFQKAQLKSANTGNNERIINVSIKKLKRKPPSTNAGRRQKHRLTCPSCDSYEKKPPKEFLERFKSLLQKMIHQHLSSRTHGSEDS

IC50 of IL-21-induced proliferation of human naive CD4+ T cells (ATP, day 4)	inhibition of IgG production by human B cells	Binder
0.061 nM	> 99%	B1

The binders below were run against B9 (assay: cell-based or functional assay).

inhibition of IgG production by human B cells	Binder
> 99%	B1

Each binder was assayed against IL-21 (species not stated in the assay) (Homo sapiens (Human), UniProt Q9HBE4 25-162, Biotinylated in the competition ELISA of paragraph 259 (sites not given); unlabelled in the other results.) (assay: cell-based or functional assay).
Sequence of IL-21 (species not stated in the assay) (Q9HBE4 25-162 limits assumed): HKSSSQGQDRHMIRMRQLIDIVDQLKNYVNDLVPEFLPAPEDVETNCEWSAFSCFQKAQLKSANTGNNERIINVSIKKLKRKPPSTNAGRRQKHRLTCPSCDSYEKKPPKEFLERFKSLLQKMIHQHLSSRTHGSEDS

maximal inhibition in pSTAT3 assay	Binder
100%	B2
100%	B3
100%	B4
100%	B5
100%	B1
100%	B6
100%	B7
100%	B8

Biological target: T3, recombinant human IL-21
Assay: cell-based or functional assay
Remark: another data set of the same source

IC50 in pSTAT3 assay (human PBMCs, 20 pM IL-21)	Binder
5.5 pM	B2
18.7 pM	B3
115 pM	B4
328 pM	B5
3.15 pM	B1
12.1 pM	B6
13.6 pM	B7
13.2 pM	B8

Biological target: B9
Assay: cell-based or functional assay
Remark: another data set of the same source

IC50 in pSTAT3 assay (human PBMCs, 20 pM IL-21)	Binder
9.75 pM	B2
15.6 pM	B3
228 pM	B4
160 pM	B5
5.99 pM	B1
52.2 pM	B6
45.9 pM	B7
50.8 pM	B8

Biological target: T3, recombinant human IL-21
Assay: cell-based or functional assay
Remark: another data set of the same source

IC50 in NK-92 cell assay (IFNγ, 200 pM IL-21)	Binder
54.8 pM	B2
99 pM	B3
944 pM	B4
20.2 nM	B5
41 pM	B1

Biological target: B9
Assay: cell-based or functional assay
Remark: another data set of the same source

IC50 in NK-92 cell assay (IFNγ, 200 pM IL-21)	Binder
60.3 pM	B2
83.4 pM	B3
771 pM	B4
3.43 nM	B5
37 pM	B1

Biological target: T3, recombinant human IL-21
Assay: cell-based or functional assay
Remark: another data set of the same source

IC50 in PC differentiation assay (2 nM IL-21)	Binder
0.573 nM	B2
0.618 nM	B3
> 200 nM	B4
116 nM	B5
1.53 nM	B1

Biological target: B9
Assay: cell-based or functional assay
Remark: another data set of the same source

IC50 in PC differentiation assay (2 nM IL-21)	Binder
0.659 nM	B2
1.32 nM	B3
8.9 nM	B4
29.8 nM	B5
0.775 nM	B1

The binders below were run against IL-2 (UniProt P60568 21-153) (assay: ELISA on plate-coated cytokine (2 µg/ml)).
Method: (§1) ELISA was used to test cross reactivity of lead clones. Cytokines tested include 11-2, IL-4, IL-7, IL-9, and IL-15. Maxisorp ELISA plate (NUNC) was coated with 2 μg/ml of different cytokines in PBS at 4° C. overnight. The plate was then blocked with 3% BSA in PBST (PBS+0.1% Tween) at room temperature for one hour. Purified lead clone IgGs were serially diluted in PBST+3% BSA and the mixture was then added to each ELISA plate well and further incubated at room temperature for half an hour. After washing, secondary antibody-HRP was added to each well for 1 hour. Wells were washed first with PBST and then with PBS and the TMB solution from Pierce was added to detect the secondary antibody. After 5′ the reaction was stopped by the addition of 1N sulfuric acid. The plates were then read in an ELISA reader at 450 nm to detect the binding.

Sequence of IL-2 (P60568 21-153 limits assumed): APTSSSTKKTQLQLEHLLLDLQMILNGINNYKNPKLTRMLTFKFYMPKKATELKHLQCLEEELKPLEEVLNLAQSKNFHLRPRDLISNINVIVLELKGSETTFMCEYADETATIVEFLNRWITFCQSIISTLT

binding result	Binder
no binding	B2
no binding	B3
no binding	B4
no binding	B5
no binding	B1

Each binder was assayed against T1, IL-4 (assay: ELISA on plate-coated cytokine (2 µg/ml)).
Method: as §1

binding result	Binder
no binding	B2
no binding	B3
no binding	B4
no binding	B5
no binding	B1

The binders below were run against T2, IL-7 (assay: ELISA on plate-coated cytokine (2 µg/ml)).
Method: as §1

binding result	Binder
no binding	B2
no binding	B3
no binding	B4
no binding	B5
no binding	B1

Each binder was assayed against IL-15 (UniProt P40933 49-162) (assay: ELISA on plate-coated cytokine (2 µg/ml)).
Method: as §1

Sequence of IL-15 (P40933 49-162 limits assumed): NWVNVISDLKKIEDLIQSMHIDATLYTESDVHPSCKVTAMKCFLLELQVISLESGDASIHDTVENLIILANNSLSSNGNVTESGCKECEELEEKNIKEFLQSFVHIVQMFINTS

binding result	Binder
no binding	B4

The binders below were run against T3, recombinant human IL-21 (assay: method not stated for this clone (Table 2, column Kd hu)).

Kd	Binder
0.000245 nM	B2
0.000403 nM	B3
0.108 nM	B5

The binders below were run against K44VHa-N56Q (MEDI7169) (assay: KinExA solution-phase equilibrium titration: fixed 50 pM K44VHa-N56Q (MEDI7169) IgG, cynomolgus monkey IL-21 varied; free IgG captured on IL-21-coated beads (the competitor)).
Method: (§2) The IL-21-coated Azlactone bead slurries were diluted to 30 mL with instrument buffer (PBS, pH 7.4, 0.02% NaN3) in a bead vial and affixed to the KinExA instrument. A user-defined timing program was used to sequentially transfer the IL-21/Azlactone beads to a capillary flow cell in the instrument, and individual sample mixtures were injected over the IL-21-coated beads. Unbound sample solution was removed by washing the beads with instrument buffer. A 1- or 2-μg/mL solution of the DyLight649-labeled, goat-anti-hulgG(H+L) secondary reagent (Thermo Scientific) was passed over the beads to detect receptor (K44VHa-N56Q) that remained bound to the IL-21-coated beads. […] The amount of fluorescence that remained associated with the beads was measured, and the signal was converted to percent free receptor (K44VHa-N56Q). […] Once the data had been collected for all samples in each series (500 fM and 50 pM K44VHa-N56Q), an isotherm was generated, which plotted the amount of free K44VHa-N56Q detected at each concentration of IL-21. The resulting 2 binding curves were then evaluated in a dual curve analysis using the instrument's evaluation software (KinExA Pro Software, v. 2.0.1.26, Sapidyne) from which individual KDS for each interaction were derived.
(§3) The binding of K44VHa-N56Q to human and cynomolgus monkey IL-21 was measured by KinExA. […]

IC50 (read off the curve)	Binder
~0.06 nM	B9

Each binder was assayed against K44VHa-N56Q (MEDI7169) (assay: KinExA solution-phase equilibrium titration: fixed 500 fM K44VHa-N56Q (MEDI7169) IgG, cynomolgus monkey IL-21 varied; free IgG captured on IL-21-coated beads (the competitor)).
Method: as §2, §3

IC50 (read off the curve)	Binder
~0.001 nM	B9

— patent publication US20200164069A1 (BOSTON PHARMACEUTICALS, published 2020)
